Laboratory results reported in article PMC12730314, “The Role of Surfactants in Stabilizing Fluorescence Anisotropy for Protein–Aptamer Binding Affinity Measurements”.

Experiments:
[1] = target: human serum albumin (HSA) (Homo sapiens, UniProt P02768 25-609); assay: fluorescence anisotropy; PBS + 5 mM MgCl2, no Tween 20; saturable, poor 1:1 fit; 25 C, 40 min; HSA: PBS +; conditions: protein: commercial
[2] = target: T1, thrombin (human plasma) (Homo sapiens, UniProt P00734;P00734 328-363;364-622); assay: fluorescence anisotropy; no surfactant, 75 nM aptamer; Hill fit; Thrombin: TGK (192 mM Tris, 5 mM KH2PO4, 25 mM glycine hydrochloride; pH not stated) +/- 0.1% Tween 20, thrombin stock in 1 mg/mL BSA, 25 C, 40 min; HSA: PBS +
[3] = target: T1, thrombin (human plasma); assay: fluorescence anisotropy; 0.1% Tween 20, 25 nM aptamer; Hill fit; Thrombin: TGK (192 mM Tris, 5 mM KH2PO4, 25 mM glycine hydrochloride; pH not stated) +/- 0.1% Tween 20, thrombin stock in 1 mg/mL BSA, 25 C, 40 min; HSA: PBS +
[4] = target: T1, thrombin (human plasma); assay: fluorescence anisotropy; 0.1% Tween 20, 50 nM aptamer; Hill fit; Thrombin: TGK (192 mM Tris, 5 mM KH2PO4, 25 mM glycine hydrochloride; pH not stated) +/- 0.1% Tween 20, thrombin stock in 1 mg/mL BSA, 25 C, 40 min; HSA: PBS +
[5] = target: T1, thrombin (human plasma); assay: fluorescence anisotropy; 0.1% Tween 20, 75 nM aptamer; Hill fit; Thrombin: TGK (192 mM Tris, 5 mM KH2PO4, 25 mM glycine hydrochloride; pH not stated) +/- 0.1% Tween 20, thrombin stock in 1 mg/mL BSA, 25 C, 40 min; HSA: PBS +

Chain of human serum albumin (HSA) (P02768 25-609): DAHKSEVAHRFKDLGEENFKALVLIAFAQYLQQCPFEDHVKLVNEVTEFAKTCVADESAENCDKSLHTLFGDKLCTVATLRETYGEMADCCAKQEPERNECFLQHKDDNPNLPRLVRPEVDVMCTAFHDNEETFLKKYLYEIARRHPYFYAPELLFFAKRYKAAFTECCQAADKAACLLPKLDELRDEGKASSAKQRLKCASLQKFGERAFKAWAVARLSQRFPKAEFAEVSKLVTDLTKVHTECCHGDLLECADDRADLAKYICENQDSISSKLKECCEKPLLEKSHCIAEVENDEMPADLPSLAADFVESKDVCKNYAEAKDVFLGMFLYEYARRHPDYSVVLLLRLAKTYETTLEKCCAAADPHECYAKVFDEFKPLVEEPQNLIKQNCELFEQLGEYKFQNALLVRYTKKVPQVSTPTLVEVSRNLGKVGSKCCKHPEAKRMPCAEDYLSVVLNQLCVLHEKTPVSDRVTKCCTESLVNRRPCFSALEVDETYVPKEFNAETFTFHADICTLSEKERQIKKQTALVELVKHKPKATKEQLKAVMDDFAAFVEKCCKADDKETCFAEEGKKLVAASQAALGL

Row | Binder | binding result [1] | Kd [2] | Kd [3] | Kd [4] | Kd [5]
1 | TCCACGATGTAGGATCCACATGAGCGCTCCTGTTACCCTG (ssDNA) [TR-labeled s10yh2] | binds |  |  |  | 
2 | AGTCCGTGGTAGGGCAGGTTGGGGTGACT (structured_DNA) [TR-labeled thrombin-binding 29mer] |  | 54 nM | 35 nM | 53 nM | 30 nM
